The source of these data is the supplement of paper PMC9170038.

The data set relates to MS2 coat protein. Put plainly: apparent KD of MS2 coat protein; higher = weaker reporter binding. Conditions: Eterna round: R107. In a few lines: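 With or without constant ligand, designed RNA switches in 100 mM Tris-HCl pH 7.5, 80 mM KCl and 4 mM MgCl2 were titrated with SNAP-549-labelled MS2 coat protein. Concentrations went up in twofold steps from 0.7 or 1.5 nM to 3 µM. The switches had been transcribed on-chip from Illumina sequencing clusters, and apparent KD is the per-design median of normalised cluster binding-curve fits.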

The mark [1] stands for this setting: input ligand: theophylline 20 uM.
Setting [2] is: input ligand: tryptophan 2.4 mM.
Where [3] appears, read: input ligand: theophylline 2 mM.

Turning to “AUUGGGUUAUCAGAUACCAGACUAUUCUAGACAUGAGGAUCACCCAUGUAUUGGGUUUUCGUCCCUUGGCAGCUGUUAAGUUUAA [JR_SSTheophyB_Sub005]”, the “apparent KD of MS2 coat protein” value is 117 nM (input ligand: arginine 13.2 mM), 195 nM under setting [1] and 165 nM under setting [2].
With “AUUGUCGCGUCGGCCGCCACUGUCAUGGUUUUCGUGGAACACAUGAGGAUCACCCAUGUAAUUGACAGGACCGGGACGUGGCGGC [Vevea]”, the “apparent KD of MS2 coat protein” value reads like this: (input ligand: arginine 13.2 mM) 10.2 nM; (input ligand: none) 8.64 nM; under setting [1], 11.1 nM; under setting [3], 10.6 nM; under setting [2], 12.2 nM.
Turning to “AUUUAUUAGACGGCCGCCACUUGAAAGCGACCUCAUAAAUGGGAACAUGAGGAUCACCCAUGUAAGAGGACCGGGUCUAGUAGAU [TryptB-ms2@45]”, the “apparent KD of MS2 coat protein” value is, setting by setting: (input ligand: arginine 13.2 mM) 132 nM; under setting [1], 150 nM; under setting [3], 318 nM.
Consider “CAAGAACAGCCAGAUCUUGGCAGCUGAGAAGGAGCGCGGGAAGCCGCAGGUAGGUCGCUCAGGAAUACAUGAGGAUCACCCAUGU [Beoror]”, for which the “apparent KD of MS2 coat protein” value is, setting by setting: (input ligand: arginine 13.2 mM) 19.8 nM; (input ligand: none) 17.6 nM; under setting [1], 24.6 nM; under setting [3], 20 nM; under setting [2], 17.2 nM.
Taken in the same sequence, the figures for “CAAUUUAGAAAACUAAAUUGAGUGGGUGAACGAGGACCGGUACGGCCGCCACUCGGACAUGAGGAUCACCCAUGUCCAUGUGAAA [AstrosExyTryA#23]” were 11.3 nM, 14.8 nM, 15.8 nM, 16.6 nM and 29.2 nM.
“CAAUUUAUAUGAAGGAGCGUCGAAAAUGGGUAAACAUGAGGAUCACCCAUGUAAAGGGAACGACAGGUAGGUCGCAUAUGGAUUG [AstromonsSSArgB#10]”: the “apparent KD of MS2 coat protein” value is, setting by setting: (input ligand: arginine 13.2 mM) 123 nM; (input ligand: none) 180 nM; under setting [1], 234 nM; under setting [3], 316 nM; under setting [2], 182 nM.
Regarding “CAAUUUCGAAUAGAUACCAGCUGUCAUAAACACAUGAGGAUCACCCAUGUGCUUCUCGUCAGCCCUUGGCAGCUAUAACUAGAGC [theeternabot_sameState_MS2_Theo_B_40]”, the “apparent KD of MS2 coat protein” value came to 15.4 nM (input ligand: arginine 13.2 mM), 16.5 nM under setting [1] and 16.1 nM under setting [2].
With “CACAUGAGGAUCACCCAUGUCUGAACUGAAGGAGCGCUAAACAAGGCAGGUAGGUCGCGGAAUUUUGUGUGCAUAUGCACACGGG [9.R]”, the “apparent KD of MS2 coat protein” value came out at 16.8 nM (input ligand: arginine 13.2 mM); 17.2 nM (input ligand: none); 32.7 nM under setting [1]; 21.1 nM under setting [3]; 17.6 nM under setting [2].
Regarding “CACAUGAGGAUCACCCAUGUCUGAACUGAAGGAGCGCUAAAUAAGGCAGGUAGGUCGCGGAAUUUUGUGUGCAUAUGCAUAUGGG [9.M]”, the “apparent KD of MS2 coat protein” value (input ligand: arginine 13.2 mM) is 23.8 nM; the “apparent KD of MS2 coat protein” value (input ligand: none) was 26.8 nM; the “apparent KD of MS2 coat protein” value under setting [1] turned out to be 37.2 nM; the “apparent KD of MS2 coat protein” value under setting [3] came to 34.2 nM; the “apparent KD of MS2 coat protein” value under setting [2] is 28.8 nM.
For the sequence “CACUACAUGAGGAUCACCCAUGUAUACUGACGAGGACCGGUACGGCCGCCACUCGAACCGAAACCGACUUCAUUCUGUGUACCAU [theeternabot_sameState_MS2_Trp_A_26]”, the “apparent KD of MS2 coat protein” value (input ligand: arginine 13.2 mM) turned out to be 15 nM, the “apparent KD of MS2 coat protein” value under setting [1] is 22.7 nM and the “apparent KD of MS2 coat protein” value under setting [3] amounted to 19.3 nM.
Taken in the same sequence, the figures for “CAGAACAUGAGGAUCACCCAUGUAAACGACCGAGGACCGGUACGGCCGCCACUCGAUAUGUCUUGAGGGAGAUAUGGAUUCACAU [theeternabot_sameState_MS2_Trp_A_46]” were 23 nM, 51.4 nM and 44.4 nM.
On to “CAGAACAUGAGGAUCACCCAUGUCAGGGAUACCAGCUCAGACAUGGGCCCUUGGCAGCUCUGUGGCUGACGAAAGUCAGCAUCUG [#17 SameState-TheophyllineA]”, for which the “apparent KD of MS2 coat protein” value is 17.5 nM (input ligand: arginine 13.2 mM), 109 nM under setting [1] and 19.5 nM under setting [2].
Take “CAGCCACAUGAGGAUCACCCAUGUGAUGAUACCAGCUUCGUCUUAAGCCCUUGGCAGCAUAUCUCUUUGUUCUCAUACAUAGCAU [theeternabot_sameState_MS2_Theo_A_16]”: the “apparent KD of MS2 coat protein” value reads like this: (input ligand: arginine 13.2 mM) 12 nM; under setting [1], 17.3 nM; under setting [2], 11.4 nM.
For “CAGUGAGAACGAAGGAGCGCUGAAUGAUGUGGACAUGAGGAUCACCCAUGUUAAGUCCAAUGGCAGGUAGGUCGCGUAACACUAG [Same State - Arginine B]”, the “apparent KD of MS2 coat protein” value (input ligand: arginine 13.2 mM) amounted to 14.1 nM; the “apparent KD of MS2 coat protein” value (input ligand: none) was 15.8 nM; the “apparent KD of MS2 coat protein” value under setting [1] was determined as 11.9 nM; the “apparent KD of MS2 coat protein” value under setting [3] stood at 12.7 nM; the “apparent KD of MS2 coat protein” value under setting [2] came out at 15.8 nM.
Consider “CAGUGAGAGUCGGCCGCCACUUAACGCAAGUAGCGCAACCCAAAACAUGAGGAUCACCCAUGUCGAAGGACCGGGACAAUGAGCG [theeternabot_sameState_MS2_Trp_B_47]”, for which the “apparent KD of MS2 coat protein” value worked out at 11.5 nM (input ligand: arginine 13.2 mM), 16.7 nM under setting [1] and 11.7 nM under setting [3].
As to “CAUAUUGUAACUGAUACCAGUGUACUGACAUGAGGAUCACCCAUGUUGGGUUUUGUUGUACACCCUUGGCAGCAGAAUCAAUAUG [AstrosExyTheB#4]”, the “apparent KD of MS2 coat protein” value (input ligand: arginine 13.2 mM) came out at 45.6 nM, the “apparent KD of MS2 coat protein” value under setting [1] is 74.2 nM and the “apparent KD of MS2 coat protein” value under setting [2] turned out to be 60.4 nM.
